The supplement of paper PMC10567573

B1: MATN2 (parent)
chain: TDDSYSCHCLKGFTLNPDKKTCRR

Variants of: B1
Assay: protein stability index of a GFP-peptide fusion (GPS, HEK-293T) (PSI 1-6); higher = more stable
Settings: c terminus: a fixed tail appended
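Also: lentivirally expressed fusions sorted by FACS into six bins by GFP to DsRed ratio, PSI derived from sequencing read proportions per bin multiplied by bin number.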

Protein stability index, by site and new letter:
S6: F 1.26, P 2.5, Y 2.12, C 2.55, N 1.93, Q 1.76, V 3.42, R 2.4
D18: H 2.83, C 2.57, Y 1.95, V 2.42, P 2.61, E 1.77
Y5: K 2.65, W 2.23, I 2.06, S 2.66, T 2.58, L 3.53, D 2.72, Q 3.42
N16: R 2.75, A 2.68, M 2.65
L15: W 2.48, R 2.81, H 1.97, I 2.12, M 2.38, Y 2.45, N 2.03, F 2.86, S 2.17
L10: H 1.86, T 1.93, C 3.11, Y 2.32, N 3.04, F 2.46
H8: V 2.33, S 2.3, K 4.02, E 2.84, A 1.66, Q 2.18, N 1.91
R24: E 3.43, T 3.15, F 2.5, Q 2.61, Y 2.6, M 2.19, H 4.06, P 2.46, A 2.87
D3: C 2.17, R 2.2, P 2.93, A 2.24, Y 1.76, L 2.36, V 2.41, G 2.36
P17: C 3.48, E 2.77, S 2.11, A 2.25, W 1.65, K 2.63, T 2.5, M 2.71, V 2.92, R 2.35, G 2.57
S4: G 1.88, L 1.84, D 2, I 2.87, A 1.34, F 1.83, K 2.56, M 2.22
T1: R 2.95, V 3.42, H 2.7, A 2.47, P 2.81, F 2.21, E 2.09, G 2.71, Q 1.75, I 2.1, S 2.63, K 1.75
R23: N 2.71, A 2.41, V 2.48, Q 2.78, E 2.52
T14: R 2, L 2.01, W 2.69, M 1.64, P 1.79, C 2.31, V 3.45, Y 1.6
C22: H 2.18, I 2.09, W 1.67, S 2.42, P 3, M 1.88, A 2, T 2.44, Q 2.27, K 3.37, L 2.93
C9: F 3.47, A 4.6, Q 4.1, N 4.57, K 4.03, P 4.53, S 4.48
K19: L 2.21, E 2.3, Y 2.25, P 2.19, D 2.37, A 2.46, V 2.3
K11: I 2.08, G 2.78, W 2.2, R 2.04, Q 1.83, V 2.06, T 1.96, N 2.15, D 2.44, A 2.27, Y 2.4
K20: F 1.85, G 2.09, T 1.6, W 1.48, D 2.29, V 1.77, Y 1.53, I 2.1, Q 2.95
F13: V 2.21, N 1.81, R 2.14, L 2.77, G 2.88, I 2.05, A 2.88, Q 2.02
D2: W 2.24, E 1.98, T 2.08, A 1.88
C7: Y 3.71, K 4.21, F 3.96, I 3.9, S 4.54, G 4.45, E 4.61
T21: L 2.15, I 2.4, F 1.57, E 2.89, H 2.62, M 2.57, C 2.75, G 1.33
G12: H 2.91, P 2.63, V 1.79, D 2.19, F 1.98, L 2.45, Q 2.85, S 2.1, E 2.27, I 1.78, Y 1.73, C 2.54
